{"source": "paper PMC5132288", "about": "“Identification, Heterologous Expression, and Functional Characterization of Bacillus subtilis YutF, a HAD Superfamily 5'-Nucleotidase with Broad Substrate Specificity” (PLoS ONE, 2016)", "proteins": {"B1": {"name": "Ht-YutF (recombinant YutF, N-terminal hexahistidine tag) (Bacillus subtilis subsp. subtilis str. 168) (protein)", "chain": "KTYKGYLIDLDGTMYNGTEKIEEACEFVRTLKDRGVPYLFVTNNSSRTPKQVADKLVSFDIPATEEQVFTTSMATAQHIAQQKKDASVYVIGEEGIRQAIEENGLTFGGENADFVVVGIDRSITYEKFAVGCLAIRNGARFISTNGDIAIPTERGLLPGNGSLTSVLTVSTGVQPVFIGKPESIIMEQAMRVLGTDVSETLMVGDNYATDIMAGINAGMDTLLVHTGVTKREHMTDDMEKPTHAIDSLTEWIPYI"}}, "format_in_all_cases": "biochemical, Bacillus subtilis", "key": {"purified protein": {"substrate": "O=[N+]([O-])c1ccc(OP(=O)(O)O)cc1", "experiment": "purified protein", "conditions": "100 mM Tris-HCl pH 8.9, 5 mM MgCl2, 25°C"}, "[1]": {"substrate": "O=c1[nH]c(=O)c2ncn([C@@H]3O[C@H](COP(=O)(O)O)[C@@H](O)[C@H]3O)c2[nH]1", "experiment": "colorimetric inorganic phosphate release, nonlinear regression", "conditions": "100 mM MES pH 6.0, 5 mM MgCl2, 37°C", "text": "(§1) colorimetric inorganic phosphate release, nonlinear regression on Ht-YutF (recombinant YutF, N-terminal hexahistidine tag)"}, "[2]": {"substrate": "Nc1nc2c(ncn2[C@@H]2O[C@H](COP(=O)(O)O)[C@@H](O)[C@H]2O)c(=O)[nH]1", "experiment": "colorimetric inorganic phosphate release, nonlinear regression", "conditions": "100 mM MES pH 6.0, 5 mM MgCl2, 37°C", "text": "as §1"}, "[3]": {"substrate": "O=P(O)(O)OC[C@H]1O[C@H](OP(=O)(O)OP(=O)(O)O)[C@H](O)[C@@H]1O", "experiment": "colorimetric inorganic phosphate release, nonlinear regression", "conditions": "100 mM MES pH 6.0, 5 mM MgCl2, 37°C", "text": "as §1"}}, "data": [{"protein": "B1", "values": [{"measurement": "Km", "setting": "purified protein", "value": "1640 ± 60", "unit": "µM"}, {"measurement": "kcat", "setting": "purified protein", "value": "61 ± 1", "unit": "s⁻¹"}, {"measurement": "kcat/Km", "setting": "purified protein", "value": 37000, "unit": "M⁻¹ s⁻¹"}, {"measurement": "Km", "setting": "[1]", "value": "1530 ± 110", "unit": "µM"}, {"measurement": "kcat", "setting": "[1]", "value": "0.31 ± 0.01", "unit": "s⁻¹"}, {"measurement": "kcat/Km", "setting": "[1]", "value": 210, "unit": "M⁻¹ s⁻¹"}, {"measurement": "Km", "setting": "[2]", "value": "6650 ± 1260", "unit": "µM"}, {"measurement": "kcat", "setting": "[2]", "value": "0.06 ± 0.01", "unit": "s⁻¹"}, {"measurement": "kcat/Km", "setting": "[2]", "value": 9, "unit": "M⁻¹ s⁻¹"}, {"measurement": "Km", "setting": "[3]", "value": "1270 ± 100", "unit": "µM"}, {"measurement": "kcat", "setting": "[3]", "value": "0.17 ± 0.01", "unit": "s⁻¹"}, {"measurement": "kcat/Km", "setting": "[3]", "value": 130, "unit": "M⁻¹ s⁻¹"}]}]}
